From publication PMC4690146

Molecular target: CD36 (human (endogenous in primary monocytes)) (UniProt P16671)
Chain of UniProt P16671 (P16671 whole entry): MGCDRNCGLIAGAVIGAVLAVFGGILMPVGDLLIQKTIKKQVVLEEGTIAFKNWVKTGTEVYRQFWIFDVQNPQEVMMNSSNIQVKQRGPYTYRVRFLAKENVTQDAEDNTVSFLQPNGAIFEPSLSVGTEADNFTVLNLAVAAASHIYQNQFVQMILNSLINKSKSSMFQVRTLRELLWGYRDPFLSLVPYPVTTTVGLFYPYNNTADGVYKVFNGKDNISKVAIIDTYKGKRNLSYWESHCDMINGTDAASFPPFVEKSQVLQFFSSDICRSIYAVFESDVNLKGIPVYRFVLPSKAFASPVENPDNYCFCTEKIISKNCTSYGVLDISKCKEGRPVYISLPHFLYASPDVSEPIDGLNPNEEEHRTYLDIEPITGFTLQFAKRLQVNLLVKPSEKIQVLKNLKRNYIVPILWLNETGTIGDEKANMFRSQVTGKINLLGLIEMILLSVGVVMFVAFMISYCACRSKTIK

CD36 surface expression on Mo (flow cytometry, percentage of CD36 positive cells) after bLF 100 μg/mL for 18 h (% CD36 positive cells): < 30
Substance: bovine lactoferrin (natural protein)
